Results: patent publication US9266930
Read-outs that look alike come from different tables or passages of the source.

What was measured:
HLA-A*1101 (human) [1] = molecular target: HLA-A*1101 (human)
HLA-A*0301 (human) [2] = molecular target: HLA-A*0301 (human)
HLA-A*1101 (human) [3] = molecular target: HLA-A*1101 (human); remark: listed apart in the source
HLA-A*1101 (human) [4] = assay: competition with 125I-labeled probe peptide for purified HLA, gel filtration
HLA-A*0301 (human) [5] = assay: as above
HLA-A*1101 (Human) [6] = molecular target: HLA-A*1101 (Human)
HLA-A*6801 (human) [7] = molecular target: HLA-A*6801 (human)
HLA-A*3301 (human) [8] = assay: competition with 125I-labeled probe peptide for purified HLA, gel filtration
HLA-A*6801 (human) [9] = assay: as above
HLA-A*3101 (human) [10] = assay: as above
HLA-A*3301 (human) [11] = molecular target: HLA-A*3301 (human)
HLA-A*3101 (human) [12] = molecular target: HLA-A*3101 (human)

[…] (P. falciparum EXP-1, position 79, 10 amino acids) (peptide; other documents disagree on this pair)
binding affinity ratio (IC50 of standard peptide / IC50 of test peptide) (HLA-A*0201 (Human)): 0.0022

[…] (LSA position 1855, 10-mer) (peptide; other documents disagree on this pair)
binding affinity ratio (IC50 of standard peptide / IC50 of test peptide) (HLA-A*1101 (human) [1]): 0.0045

[…] (Pf LSA 1830, 10-mer A03 supermotif peptide) (peptide; other documents disagree on this pair)
binding affinity ratio (IC50 of standard peptide / IC50 of test peptide) (HLA-A*0301 (human) [2]): 0.0004

[…] (LSA position 1183, 10-mer) (peptide; other documents disagree on this pair)
binding affinity ratio (IC50 of standard peptide / IC50 of test peptide) (HLA-A*1101 (human) [1]): 0.0002

[…] (LSA position 520, 10-mer) (peptide; other documents disagree on this pair)
binding affinity ratio (IC50 of standard peptide / IC50 of test peptide) (HLA-A*1101 (human) [1]): 0.0002

[…] (Pf LSA position 1751, 9-mer) (peptide; other documents disagree on this pair)
binding affinity ratio (IC50 of standard peptide / IC50 of test peptide) (HLA-A*1101 (human) [1]): 0.0018

[…] (Pf LSA 1854, 10-mer A03 supermotif peptide) (peptide; other documents disagree on this pair)
binding affinity ratio (IC50 of standard peptide / IC50 of test peptide) (HLA-A*1101 (human) [3]): 0.049

[…] (P. falciparum LSA, position 1575, 9 amino acids) (peptide; other documents disagree on this pair)
binding affinity ratio (relative to standard peptide) (HLA-A*1101 (human) [4]): 0.0002 | binding affinity ratio (relative to standard peptide) (HLA-A*0301 (human) [5]): 0.0001

[…] (LSA position 1387, 10-mer) (peptide; other documents disagree on this pair)
binding affinity ratio (IC50 of standard peptide / IC50 of test peptide) (HLA-A*1101 (human) [1]): 0.0002

[…] (LSA, position 1825, 10 amino acids) (peptide; other documents disagree on this pair)
binding affinity ratio (IC50 of standard peptide / IC50 of test peptide) (HLA-A*1101 (Human) [6]): 0.0009

[…] (LSA, position 1854, 10 amino acids) (peptide; other documents disagree on this pair)
binding affinity ratio (IC50 of standard peptide / IC50 of test peptide) (HLA-A*1101 (Human) [6]): 0.049

[…] (P. falciparum LSA, position 1676, 9-mer) (peptide; other documents disagree on this pair)
binding affinity ratio (IC50 of standard peptide / IC50 of test peptide) (HLA-A*1101 (human) [1]): 0.0013

[…] (Pf LSA 1825, 10-mer A03 supermotif peptide) (peptide; other documents disagree on this pair)
binding affinity ratio (IC50 of standard peptide / IC50 of test peptide) (HLA-A*1101 (human) [3]): 0.0009

[…] (Pf LSA 1693, 9-mer A03 supermotif peptide) (peptide; other documents disagree on this pair)
binding affinity ratio (IC50 of standard peptide / IC50 of test peptide) (HLA-A*6801 (human) [7]): 0.0054

[…] (EXP position 83, 10 amino acids) (peptide; other documents disagree on this pair)
binding affinity ratio (IC50 of standard peptide / IC50 of test peptide) (HLA-A*0201 (Human)): 0.038

[…] (P. falciparum LSA, position 1660, 10 amino acids) (peptide; other documents disagree on this pair)
binding affinity ratio (relative to standard peptide) (HLA-A*3301 (human) [8]): 0.0008 | binding affinity ratio (relative to standard peptide) (HLA-A*6801 (human) [9]): 0.0029 | binding affinity ratio (relative to standard peptide) (HLA-A*1101 (human) [4]): 0.0002 | binding affinity ratio (relative to standard peptide) (HLA-A*3101 (human) [10]): 0.0009 | binding affinity ratio (relative to standard peptide) (HLA-A*0301 (human) [5]): 0.0001

[…] (LSA, position 1834, 10 amino acids) (peptide; other documents disagree on this pair)
binding affinity ratio (IC50 of standard peptide / IC50 of test peptide) (HLA-A*1101 (Human) [6]): 0.0007

[…] (LSA, position 1854, 9 amino acids) (peptide; other documents disagree on this pair)
binding affinity ratio (IC50 of standard peptide / IC50 of test peptide) (HLA-A*1101 (Human) [6]): 0.034

[…] (LSA position 1574, 10-mer) (peptide; other documents disagree on this pair)
binding affinity ratio (IC50 of standard peptide / IC50 of test peptide) (HLA-A*1101 (human) [1]): 0.0002

[…] (P. falciparum LSA, position 1388, 9 amino acids) (peptide; other documents disagree on this pair)
binding affinity ratio (relative to standard peptide) (HLA-A*1101 (human) [4]): 0.0002 | binding affinity ratio (relative to standard peptide) (HLA-A*0301 (human) [5]): 0.0001

[…] (P. falciparum LSA, position 1713, 10 amino acids) (peptide; other documents disagree on this pair)
binding affinity ratio (relative to standard peptide) (HLA-A*3301 (human) [8]): 0.0055 | binding affinity ratio (relative to standard peptide) (HLA-A*6801 (human) [9]): 0.0046 | binding affinity ratio (relative to standard peptide) (HLA-A*1101 (human) [4]): 0.0002 | binding affinity ratio (relative to standard peptide) (HLA-A*3101 (human) [10]): 0.0009

[…] (Pf LSA 1834, 10-mer A03 supermotif peptide) (peptide; other documents disagree on this pair)
binding affinity ratio (IC50 of standard peptide / IC50 of test peptide) (HLA-A*3301 (human) [11]): 0.0009 | binding affinity ratio (IC50 of standard peptide / IC50 of test peptide) (HLA-A*1101 (human) [3]): 0.0007 | binding affinity ratio (IC50 of standard peptide / IC50 of test peptide) (HLA-A*3101 (human) [12]): 0.0042 | binding affinity ratio (IC50 of standard peptide / IC50 of test peptide) (HLA-A*0301 (human) [2]): 0.0081

[…] (LSA, position 1704, 9 amino acids) (peptide; other documents disagree on this pair)
binding affinity ratio (IC50 of standard peptide / IC50 of test peptide) (HLA-A*1101 (Human) [6]): 0.0007

[…] (Pf LSA 1631, 10-mer A03 supermotif peptide) (peptide; other documents disagree on this pair)
binding affinity ratio (IC50 of standard peptide / IC50 of test peptide) (HLA-A*3301 (human) [11]): 0.0011 | binding affinity ratio (IC50 of standard peptide / IC50 of test peptide) (HLA-A*3101 (human) [12]): 0.0086

[…] (EXP position 84, 10 amino acids) (peptide; other documents disagree on this pair)
binding affinity ratio (IC50 of standard peptide / IC50 of test peptide) (HLA-A*0201 (Human)): 0.0059

[…] (EXP position 84, 9 amino acids) (peptide; other documents disagree on this pair)
binding affinity ratio (IC50 of standard peptide / IC50 of test peptide) (HLA-A*0201 (Human)): 0.035

[…] (LSA position 40, 10-mer) (peptide; other documents disagree on this pair)
binding affinity ratio (IC50 of standard peptide / IC50 of test peptide) (HLA-A*1101 (human) [1]): 0.0002

[…] (Pf LSA 68, 9-mer A03 supermotif peptide) (peptide; other documents disagree on this pair)
binding affinity ratio (IC50 of standard peptide / IC50 of test peptide) (HLA-A*1101 (human) [3]): 0.0038 | binding affinity ratio (IC50 of standard peptide / IC50 of test peptide) (HLA-A*0301 (human) [2]): 0.0028

[…] (Pf LSA 1704, 9-mer A03 supermotif peptide) (peptide; other documents disagree on this pair)
binding affinity ratio (IC50 of standard peptide / IC50 of test peptide) (HLA-A*3301 (human) [11]): 0.0043 | binding affinity ratio (IC50 of standard peptide / IC50 of test peptide) (HLA-A*6801 (human) [7]): 0.32 | binding affinity ratio (IC50 of standard peptide / IC50 of test peptide) (HLA-A*1101 (human) [3]): 0.0007 | binding affinity ratio (IC50 of standard peptide / IC50 of test peptide) (HLA-A*3101 (human) [12]): 0.0025

[…] (LSA position 1750, 10-mer) (peptide; other documents disagree on this pair)
binding affinity ratio (IC50 of standard peptide / IC50 of test peptide) (HLA-A*1101 (human) [1]): 0.0002

[…] (LSA position 1703, 9-mer) (peptide; other documents disagree on this pair)
binding affinity ratio (IC50 of standard peptide / IC50 of test peptide) (HLA-A*1101 (human) [1]): 0.0027

[…] (Pf LSA 16, 9-mer A03 supermotif peptide) (peptide; other documents disagree on this pair)
binding affinity ratio (IC50 of standard peptide / IC50 of test peptide) (HLA-A*1101 (human) [3]): 0.01 | binding affinity ratio (IC50 of standard peptide / IC50 of test peptide) (HLA-A*0301 (human) [2]): 0.026

[…] (P. falciparum LSA, position 1609, 9 amino acids) (peptide; other documents disagree on this pair)
binding affinity ratio (relative to standard peptide) (HLA-A*1101 (human) [4]): 0.0002 | binding affinity ratio (relative to standard peptide) (HLA-A*0301 (human) [5]): 0.0001

[…] (LSA position 41, 9-mer) (peptide; other documents disagree on this pair)
binding affinity ratio (IC50 of standard peptide / IC50 of test peptide) (HLA-A*1101 (human) [1]): 0.003

[…] (P. falciparum LSA, position 1626, 10 amino acids) (peptide; other documents disagree on this pair)
binding affinity ratio (relative to standard peptide) (HLA-A*1101 (human) [4]): 0.0002 | binding affinity ratio (relative to standard peptide) (HLA-A*0301 (human) [5]): 0.0001

[…] (Pf LSA 1854, 9-mer A03 supermotif peptide) (peptide; other documents disagree on this pair)
binding affinity ratio (IC50 of standard peptide / IC50 of test peptide) (HLA-A*1101 (human) [3]): 0.034

[…] (LSA position 1726, 10-mer) (peptide; other documents disagree on this pair)
binding affinity ratio (IC50 of standard peptide / IC50 of test peptide) (HLA-A*1101 (human) [1]): 0.0002

[…] (Pf LSA 61, 10-mer A03 supermotif peptide) (peptide; other documents disagree on this pair)
binding affinity ratio (IC50 of standard peptide / IC50 of test peptide) (HLA-A*0301 (human) [2]): 0.0004

[…] (LSA position 49, 9-mer) (peptide; other documents disagree on this pair)
binding affinity ratio (IC50 of standard peptide / IC50 of test peptide) (HLA-A*1101 (human) [1]): 0.037

[…] (LSA position 49, 10-mer) (peptide; other documents disagree on this pair)
binding affinity ratio (IC50 of standard peptide / IC50 of test peptide) (HLA-A*1101 (human) [1]): 0.0018

[…] (P. falciparum EXP-1, position 80, 9 amino acids) (peptide; other documents disagree on this pair)
binding affinity ratio (IC50 of standard peptide / IC50 of test peptide) (HLA-A*0201 (Human)): 0.021

[…] (LSA position 1591, 10-mer) (peptide; other documents disagree on this pair)
binding affinity ratio (IC50 of standard peptide / IC50 of test peptide) (HLA-A*1101 (human) [1]): 0.0002

[…] (P. falciparum SSP2, position 31, 9 amino acids) (peptide; other documents disagree on this pair)
binding affinity ratio (relative to standard peptide) (HLA-A*1101 (human) [3]): 0.0002 | binding affinity ratio (relative to standard peptide) (HLA-A*0301 (human) [2]): 0.0005

[…] (LSA position 1703, 10-mer) (peptide; other documents disagree on this pair)
binding affinity ratio (IC50 of standard peptide / IC50 of test peptide) (HLA-A*1101 (human) [1]): 0.0002

[…] (LSA, position 68, 9 amino acids) (peptide; other documents disagree on this pair)
binding affinity ratio (IC50 of standard peptide / IC50 of test peptide) (HLA-A*1101 (Human) [6]): 0.0038
